Experiments:
Arabidopsis [1] = assay: dgt-28, dgt-32, dgt-33, dgt-3, dgt-7 transformed Arabidopsis (T1, T2, T3) response to postemergence glyphosate, % visual injury; assay type: in vivo, Arabidopsis thaliana; settings: 14 days after application
Excerpt: Transgenic T1 Arabidopsis plants containing the dgt-28 transgene were sprayed with differing rates of glyphosate. Elevated rates were applied in this study to determine the relative levels of resistance (105, 420, 1,680 or 3,360 g ae/ha). A typical 1× usage rate of glyphosate that will control non-transformed Arabidopsis is 420 g ae/ha. […] The T1 Arabidopsis plants that were used in this study were variable copy number for the dgt-28 transgene. The low copy dgt-28 T1 Arabidopsis plants were self-pollinated and used to produce T2 plants.
Results of Glyphosate Selection of Transformed dgt-28 Arabidopsis Plants. The Arabidopsis T1 transformants were first selected from the background of untransformed seed using a glufosinate selection scheme. Three flats or 30,000 seed were analyzed for each T1 construct. The T1 plants selected above were molecularly characterized and representative plants with variable copy number were subsequently transplanted to individual pots and sprayed with various rates of commercial glyphosate as previously described. The response of these plants is presented in terms of % visual injury 2 weeks after treatment (WAT). […] An arithmetic mean and standard deviation is presented for each construct used for Arabidopsis transformation. The range in individual response is also indicated in the last column for each rate and transformation. Wild-type, non-transformed Arabidopsis (c.v. Columbia) served as a glyphosate sensitive control.
T2Arabidopsis Data. The second generation plants (T2) of selected T1 Arabidopsis events which contained low copy numbers of the dgt-28 transgene were further characterized for glyphosate tolerance. Glyphosate was applied as described previously. The response of the plants is presented in terms of % visual injury 2 weeks after treatment (WAT). […] An arithmetic mean and standard deviation are presented for each construct used for Arabidopsis transformation. The range in individual response is also indicated in the last column for each rate and transformation. Wild-type, non-transformed Arabidopsis (cv. Columbia) served as a glyphosate sensitive control. In the T2 generation hemizygous and homozygous plants were available for testing for each event and therefore were included for each rate of glyphosate tested. Hemizygous plants contain two different alleles at a locus as compared to homozygous plants which contain the same two alleles at a locus. Variability of response to glyphosate is expected in the T2 generation as a result of the difference in gene dosage for hemizygous as compared to homozygous plants. The variability in response to glyphosate is reflected in the standard deviation and range of response.
T3 Arabidopsis Data. The third generation plants (T3) of selected T2 Arabidopsis events which contained low copy numbers of the dgt-28 transgene were further characterized for glyphosate tolerance. […] Glyphosate was applied as described previously. The response of the plants is presented in terms of % visual injury 2 weeks after treatment (WAT). […] An arithmetic mean and standard deviation are presented for each construct used for Arabidopsis transformation. The range in individual response is also indicated in the last column for each rate and transformation. Wild-type, non-transformed Arabidopsis (cv. Columbia) served as a glyphosate-sensitive control.

Arabidopsis [2] = assay: Heritability progeny test of T1 families (T2 plants) with glufosinate, Arabidopsis; assay type: in vivo, Arabidopsis thaliana; settings: progeny test of 100 T2 plants, glufosinate 200 g ae/ha
Excerpt: Heritability. Confirmed transgenic T1 Arabidopsis events were self-pollinated to produce T2 seed. These seed were progeny tested by applying Ignite™ herbicide containing glufosinate (200 g ae/ha) to 100 random T2 siblings. […] The T1 families (T2 plants) segregated in the anticipated 3 Resistant: 1 Sensitive model for a dominantly inherited single locus with Mendelian inheritance as determined by Chi square analysis (P>0.05). […] Seed were collected from 5 to 15 T2 individuals (T3 seed). Twenty-five T3 siblings from each of 3-4 randomly-selected T2 families were progeny tested as previously described.

[3] = Table 8, T1 Arabidopsis, 105 g ae/ha glyphosate
[4] = Table 8, T1 Arabidopsis, 420 g ae/ha glyphosate
[5] = Table 8, T1 Arabidopsis, 1680 g ae/ha glyphosate
[6] = Table 8, T1 Arabidopsis, 3360 g ae/ha glyphosate
[7] = Table 10, T1 Arabidopsis, 1,680 g ae/ha glyphosate
[8] = Table 12, T2 Arabidopsis, 1 copy, 420 g ae/ha glyphosate
[9] = Table 12, T2 Arabidopsis, 1 copy, 840 g ae/ha glyphosate
[10] = Table 12, T2 Arabidopsis, 1 copy, 1680 g ae/ha glyphosate
[11] = Table 12, T2 Arabidopsis, 1 copy, 3360 g ae/ha glyphosate

B1: pDAB105531: TraP8 v2 -- dgt-28 v5: binary construct TraP8 v2: dgt-28 v5 (SEQ ID NO:34) (nucleic acid)
DNA: ATGGCTCAATCTAGCAGAATCTGCCACGGTGTGCAGAACCCATGTGTGATCATTTCCAATCTCTCCAAATCCAACCAGAACAAATCTCCTTTCTCAGTCAGCCTCAAGACTCACCAGCAGCAGCGTCGTGCTTACCAGATATCTAGCTGGGGATTGAAGAAGTCAAACAACGGGTCCGTGATTCGTCCGGTTAAGGCAGCAAGAGGGATGCCAGCCTTGTCTTTACCTGGATCAAAGAGTATCACAGCTAGGGCACTCTTTCTTGCTGCTGCTGCTGATGGGGTTACTACTTTGGTGAGGCCATTGAGAAGTGACGACACAGAAGGATTCGCTGAGGGGTTAGTTCGTTTAGGCTATCGTGTAGGGAGGACACCCGATACTTGGCAAGTCGATGGCAGACCACAAGGACCAGCAGTGGCTGAGGCTGACGTCTACTGTAGAGACGGAGCAACCACCGCTAGATTCTTGCCAACCTTAGCAGCTGCTGGTCACGGAACATACAGATTTGATGCTTCACCACAGATGAGGAGACGTCCTCTTTTGCCCTTAAGCAGAGCCTTGAGGGATTTGGGTGTCGATCTTAGACACGAAGAAGCTGAAGGTCATCACCCTCTGACTGTCCGTGCTGCTGGGGTTGAAGGAGGAGAGGTTACTTTGGATGCTGGTCAGTCAAGTCAGTATCTCACTGCCTTGTTGCTCCTTGGTCCCCTTACAAGACAAGGACTGAGGATAAGGGTTACTGATTTGGTGTCAGCACCATACGTGGAGATTACGCTTGCAATGATGAGGGCTTTCGGAGTTGAAGTGGCAAGGGAGGGAGATGTGTTCGTTGTTCCACCTGGTGGATATCGTGCAACTACGTATGCTATAGAACCCGACGCAAGTACTGCTTCTTACTTCTTCGCAGCTGCTGCTTTGACTCCTGGAGCTGAAGTGACTGTACCTGGGTTAGGCACGGGAGCACTTCAAGGAGATTTGGGATTTGTAGATGTCTTAAGGAGAATGGGAGCCGAGGTGTCCGTAGGAGCTGATGCAACCACTGTTAGAGGAACTGGTGAATTGCGTGGCCTTACAGCCAACATGAGAGACATAAGTGATACGATGCCGACCCTCGCTGCAATAGCACCCTTTGCTAGTGCTCCAGTTAGAATCGAGGATGTTGCCAACACTCGTGTCAAAGAATGTGACAGACTTGAGGCTTGTGCAGAGAACCTTAGGAGGTTGGGAGTAAGGGTTGCAACGGGTCCGGACTGGATTGAGATACACCCTGGTCCAGCTACTGGTGCTCAAGTCACAAGCTATGGTGATCACAGAATTGTGATGTCATTTGCAGTGACTGGACTTCGTGTGCCTGGGATCAGCTTCGACGACCCTGGCTGTGTTCGTAAGACTTTTCCTGGGTTTCACGAGGCTTTCGCAGAATTGAGGCGTGGCATTGGGAGCTGA
modifications: In-frame fusion of dgt-28 v5 and TraP8 v2
% Injury Ave (Arabidopsis [1]; [3]): 10.8% | % Injury Range (%) (Arabidopsis [1]; [3]): 0-25% | No. plants with 20-40% injury (Arabidopsis [1]; [3]): 1 | No. plants with <20% injury (Arabidopsis [1]; [3]): 3 | No. plants with >40% injury (Arabidopsis [1]; [3]): 0 | % Injury Ave (Arabidopsis [1]; [4]): 22.8% | % Injury Range (%) (Arabidopsis [1]; [4]): 8-50% | No. plants with 20-40% injury (Arabidopsis [1]; [4]): 0 | No. plants with <20% injury (Arabidopsis [1]; [4]): 3 | No. plants with >40% injury (Arabidopsis [1]; [4]): 1 | % Injury Ave (Arabidopsis [1]; [5]): 5.3% | % Injury Range (%) (Arabidopsis [1]; [5]): 0-8% | No. plants with 20-40% injury (Arabidopsis [1]; [5]): 0 | No. plants with <20% injury (Arabidopsis [1]; [5]): 4 | No. plants with >40% injury (Arabidopsis [1]; [5]): 0 | % Injury Ave (Arabidopsis [1]; [6]): 29.3% | % Injury Range (%) (Arabidopsis [1]; [6]): 22-35% | No. plants with 20-40% injury (Arabidopsis [1]; [6]): 4 | No. plants with <20% injury (Arabidopsis [1]; [6]): 0 | No. plants with >40% injury (Arabidopsis [1]; [6]): 0 | % Injury Ave (Arabidopsis [1]; [7]): 5.3% | % Injury Range (%) (Arabidopsis [1]; [7]): 0-8% | No. plants with 20-40% injury (Arabidopsis [1]; [7]): 0 | No. plants with <20% injury (Arabidopsis [1]; [7]): 4 | No. plants with >40% injury (Arabidopsis [1]; [7]): 0 | % Injury Ave (Arabidopsis [1]; [8]): 0.5% | % Injury Range (%) (Arabidopsis [1]; [8]): 0-2% | No. plants with 20-40% injury (Arabidopsis [1]; [8]): 0 | No. plants with <20% injury (Arabidopsis [1]; [8]): 4 | No. plants with >40% injury (Arabidopsis [1]; [8]): 0 | % Injury Ave (Arabidopsis [1]; [9]): 1.3% | % Injury Range (%) (Arabidopsis [1]; [9]): 0-5% | No. plants with 20-40% injury (Arabidopsis [1]; [9]): 0 | No. plants with <20% injury (Arabidopsis [1]; [9]): 4 | No. plants with >40% injury (Arabidopsis [1]; [9]): 0 | % Injury Ave (Arabidopsis [1]; [10]): 7.5% | % Injury Range (%) (Arabidopsis [1]; [10]): 5-15% | No. plants with 20-40% injury (Arabidopsis [1]; [10]): 0 | No. plants with <20% injury (Arabidopsis [1]; [10]): 4 | No. plants with >40% injury (Arabidopsis [1]; [10]): 0 | % Injury Ave (Arabidopsis [1]; [11]): 7.5% | % Injury Range (%) (Arabidopsis [1]; [11]): 0-15% | No. plants with 20-40% injury (Arabidopsis [1]; [11]): 0 | No. plants with <20% injury (Arabidopsis [1]; [11]): 4 | No. plants with >40% injury (Arabidopsis [1]; [11]): 0 | T1 Families Tested Segregating at 1 Locus (%) (Arabidopsis [2]): 100%

— US9493781B2, “Synthetic brassica-derived chloroplast transit peptides” (DOW AGROSCIENCES LLC, priority 2012, dated 2016)
